# Like-named read-outs stand apart in the source and are kept apart here.
# How the values were obtained:
# ERβ [1] = biological target: T1, ERβ (Homo sapiens, UniProt Q92731); experiment: Time resolved fluorescence (TRF) binding of europium-streptavidin peptide conjugates in the presence of modulators; set-up: purchased PanVera Corporation, Madison, WI; settings: for EC50 / Equiv.: ERβ; for Equiv.: positive: % of maximum stimulation by the reference modulator, negative: % of reduction by ICI 182,780
# T1 sequence (Q92731 whole entry): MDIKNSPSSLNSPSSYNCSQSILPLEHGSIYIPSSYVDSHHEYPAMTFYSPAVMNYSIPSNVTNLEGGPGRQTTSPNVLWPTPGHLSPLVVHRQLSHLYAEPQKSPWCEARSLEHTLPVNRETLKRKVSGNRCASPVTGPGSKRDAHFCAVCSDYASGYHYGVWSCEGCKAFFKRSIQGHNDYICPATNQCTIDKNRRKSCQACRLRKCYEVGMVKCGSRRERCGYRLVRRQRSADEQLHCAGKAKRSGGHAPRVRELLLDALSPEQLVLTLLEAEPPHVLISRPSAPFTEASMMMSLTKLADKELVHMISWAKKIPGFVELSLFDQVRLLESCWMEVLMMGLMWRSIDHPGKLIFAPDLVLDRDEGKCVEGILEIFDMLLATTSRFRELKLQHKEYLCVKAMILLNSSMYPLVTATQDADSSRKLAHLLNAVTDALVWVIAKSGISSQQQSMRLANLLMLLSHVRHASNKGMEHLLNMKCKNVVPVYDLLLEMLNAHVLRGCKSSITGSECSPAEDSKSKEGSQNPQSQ
# ERβ [2] = biological target: T1, ERβ; experiment: Phage ELISA / fingerprint on ER immobilized on biotinylated ERE (Examples 2.3-2.5); settings: probe α/β I (LXXLL motif)
# ERα = biological target: T2, ERα (Homo sapiens, UniProt P03372); experiment: as above; assay type: binding; set-up: purchased PanVera Corporation, Madison, WI; key to binding activity, ERα and buffer / binding activity, ERα and estradiol / binding activity, ERα and tamoxifen / binding of peptide, Class Specific Fingerprint on ERα: semiquantitative scale of 0 to 7+; 1+: semiquantitative scale of 0 to 7+; 2+: semiquantitative scale of 0 to 7+; 3+: semiquantitative scale of 0 to 7+; 4+: semiquantitative scale of 0 to 7+; 5+: semiquantitative scale of 0 to 7+; 6+: semiquantitative scale of 0 to 7+; semiquantitative scale of 0 to 7+; settings: for binding activity, ERα and estradiol: ERα and estradiol (1 µM); for binding activity, ERα and tamoxifen: ERα and tamoxifen (4-OH tamoxifen, 1 µM)
# T2 sequence (P03372 1-595): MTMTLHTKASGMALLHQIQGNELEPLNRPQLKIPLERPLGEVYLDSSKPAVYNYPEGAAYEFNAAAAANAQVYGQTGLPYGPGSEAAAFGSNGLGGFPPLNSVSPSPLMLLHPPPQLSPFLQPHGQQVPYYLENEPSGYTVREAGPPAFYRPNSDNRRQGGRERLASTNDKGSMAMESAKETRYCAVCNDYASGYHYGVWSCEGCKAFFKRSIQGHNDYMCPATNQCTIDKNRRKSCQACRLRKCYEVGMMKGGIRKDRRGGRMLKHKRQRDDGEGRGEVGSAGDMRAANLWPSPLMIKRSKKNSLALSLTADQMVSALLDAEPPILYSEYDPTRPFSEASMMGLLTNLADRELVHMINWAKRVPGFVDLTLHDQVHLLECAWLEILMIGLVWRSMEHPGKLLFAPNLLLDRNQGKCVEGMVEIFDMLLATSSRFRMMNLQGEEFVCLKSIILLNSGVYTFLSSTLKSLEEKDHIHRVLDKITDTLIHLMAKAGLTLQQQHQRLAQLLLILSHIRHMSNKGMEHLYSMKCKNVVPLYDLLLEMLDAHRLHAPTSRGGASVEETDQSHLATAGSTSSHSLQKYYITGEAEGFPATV
# ERβ [3] = biological target: T1, ERβ; experiment: as above; assay type: binding; set-up: purchased PanVera Corporation, Madison, WI; key: semiquantitative scale of 0 to 7+; 1+: semiquantitative scale of 0 to 7+; 2+: semiquantitative scale of 0 to 7+; 3+: semiquantitative scale of 0 to 7+; 4+: semiquantitative scale of 0 to 7+; 5+: semiquantitative scale of 0 to 7+; 6+: semiquantitative scale of 0 to 7+; semiquantitative scale of 0 to 7+; settings: for binding activity, ERβ and Estradiol: ERβ and Estradiol (1 µM); for binding activity, ERβ and tamoxifen: ERβ and tamoxifen (4-OH tamoxifen, 1 µM)
# [4] = TRF binding assay, in the presence of the compound
Compound,"binding activity, ERα and buffer (ERα)","binding activity, ERα and estradiol (ERα)","binding activity, ERα and tamoxifen (ERα)","binding activity, ERβ and Estradiol (ERβ [3])","binding activity, ERβ and buffer (ERβ [3])","binding activity, ERβ and tamoxifen (ERβ [3])",binding of the probe α/β I to ER β in the presence of the ligand (ERβ [2]),other results
"CC/C(=C(\c1ccc(O)cc1)c1ccc(OCCN(C)C)cc1)c1ccccc1 [4-OH Tamoxifen, 4-OH tamoxifen]",,,,,,,prevented the binding,binding of the β I probe to ER β (ERβ [1]): enhanced
"CCN(CC)CCOc1ccc(C(=C(Cl)c2ccccc2)c2ccccc2)cc1 [Clomiphene, clomiphene]",,,,,,,prevented the binding,binding of the β I probe to ER β (ERβ [1]; [4]): reduced; EC50 (ERβ [1]; peptide probe α/βIII): 82.2 nM; Equiv. (ERβ [1]; peptide probe α/βIII): 34%; Equiv. (ERβ [1]; peptide probe α/βIV): 0%; EC50 (ERβ [1]; peptide probe α/βV): 150 nM; Equiv. (ERβ [1]; peptide probe α/βV): 13%; EC50 (ERβ [1]; peptide probe βI): 135 nM; Equiv. (ERβ [1]; peptide probe βI): -62%; EC50 (ERβ [1]; peptide probe βIII): 123 nM; Equiv. (ERβ [1]; peptide probe βIII): -61%
"CC/C(=C(/CC)c1ccc(O)cc1)c1ccc(O)cc1 [DES, diethylstilbestrol]",,,,,,,,binding of the β I probe to ER β (ERβ [1]; [4]): reduction
CC/C(=C(\c1ccc(O)cc1)c1ccc(/C=C/C(=O)O)cc1)c1ccccc1 [GW 7604],,,,,,,,Equiv. (ERβ [1]; peptide probe α/βI): 0%; Equiv. (ERβ [1]; peptide probe α/βV): 0%
"C[C@]12CC[C@@H]3c4ccc(O)cc4C[C@@H](CCCCCCCCC[S+]([O-])CCCC(F)(F)C(F)(F)F)[C@H]3[C@@H]1CC[C@@H]2O (stereo partly shown) [ICI 182,780]",,,,,,,prevented the binding,
O=C(c1ccc(OCCN2CCCCC2)cc1)c1c(-c2ccc(O)cc2)sc2cc(O)ccc12 [raloxifene],,,,,,,prevented the binding,binding of the β I probe to ER β (ERβ [1]): reduced

# More lines, main results first:
"binding activity, ERα and buffer (ERα)","binding activity, ERα and estradiol (ERα)","binding activity, ERα and tamoxifen (ERα)","binding activity, ERβ and Estradiol (ERβ [3])","binding activity, ERβ and buffer (ERβ [3])","binding activity, ERβ and tamoxifen (ERβ [3])",Compound,binding of the probe α/β I to ER β in the presence of the ligand (ERβ [2]),other results
6+,5+,6+,6+,5+,4+,SSRTPILFSLLETSR [Peptide 11E-β],,
2+,2+,3+,2+,5+,4+,SSSGPWRWGLSIESR [Peptide 17b-β],,
2+,3+,3+,4+,7+,5+,SSSLGPWRLSELESR [Peptide 16b-β],,
6+,6+,7+,6+,7+,7+,SSSMMREFFERELSR [Peptide 5b-β],,
4+,3+,3+,7+,3+,2+,SSTRLMCWLGSADTSHCSR [Peptide 28E-β],,
1+,4+,2+,7+,7+,1+,SSTSWLHHYLMGTSR [Peptide 8b-β],,
